Common to all, as to assay: SPR (BIAcore 2000), Eph receptor captured via anti-human antibody capture kit, monomeric human Ephrin-A4 12-400 nM as analyte, steady state affinity fit
In assay [1] the target is T1, recombinant EphA3 receptor (commercially available) (UniProt P29320 21-541, limits assumed).
T1 sequence (looked up): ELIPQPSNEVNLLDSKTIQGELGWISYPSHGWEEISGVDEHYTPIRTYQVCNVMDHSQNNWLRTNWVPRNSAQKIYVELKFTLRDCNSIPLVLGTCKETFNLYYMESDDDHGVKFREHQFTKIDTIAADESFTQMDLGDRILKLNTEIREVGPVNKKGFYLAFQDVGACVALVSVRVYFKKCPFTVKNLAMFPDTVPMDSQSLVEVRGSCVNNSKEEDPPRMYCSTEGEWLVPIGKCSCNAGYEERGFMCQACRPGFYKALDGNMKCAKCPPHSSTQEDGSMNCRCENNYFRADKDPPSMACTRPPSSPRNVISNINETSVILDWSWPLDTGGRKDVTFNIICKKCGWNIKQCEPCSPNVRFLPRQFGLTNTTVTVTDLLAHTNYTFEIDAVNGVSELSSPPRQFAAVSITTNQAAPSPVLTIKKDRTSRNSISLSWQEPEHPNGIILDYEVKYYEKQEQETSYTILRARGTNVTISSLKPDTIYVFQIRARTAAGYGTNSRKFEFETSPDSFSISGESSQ

The target of assay [2] is T2, recombinant EphA7 receptor (commercially available) (UniProt Q15375 28-555, limits assumed).
T2 sequence (looked up): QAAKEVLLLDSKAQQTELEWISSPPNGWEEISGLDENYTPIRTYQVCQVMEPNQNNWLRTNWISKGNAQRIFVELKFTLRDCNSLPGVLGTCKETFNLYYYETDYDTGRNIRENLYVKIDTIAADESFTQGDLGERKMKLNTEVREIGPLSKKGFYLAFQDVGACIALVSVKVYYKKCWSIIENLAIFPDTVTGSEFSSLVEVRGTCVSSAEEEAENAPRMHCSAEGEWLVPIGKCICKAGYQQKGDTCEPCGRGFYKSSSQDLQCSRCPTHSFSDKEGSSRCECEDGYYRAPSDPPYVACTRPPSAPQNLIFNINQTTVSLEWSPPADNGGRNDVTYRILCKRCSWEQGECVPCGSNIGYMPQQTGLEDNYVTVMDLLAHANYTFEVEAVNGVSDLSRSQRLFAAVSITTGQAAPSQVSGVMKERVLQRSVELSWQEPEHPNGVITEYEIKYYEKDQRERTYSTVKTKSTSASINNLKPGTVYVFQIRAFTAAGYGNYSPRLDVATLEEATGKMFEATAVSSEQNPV

In assay [3] the target is T3, recombinant EphB2 receptor (commercially available) (UniProt P29323 19-543, limits assumed).
T3 sequence (looked up): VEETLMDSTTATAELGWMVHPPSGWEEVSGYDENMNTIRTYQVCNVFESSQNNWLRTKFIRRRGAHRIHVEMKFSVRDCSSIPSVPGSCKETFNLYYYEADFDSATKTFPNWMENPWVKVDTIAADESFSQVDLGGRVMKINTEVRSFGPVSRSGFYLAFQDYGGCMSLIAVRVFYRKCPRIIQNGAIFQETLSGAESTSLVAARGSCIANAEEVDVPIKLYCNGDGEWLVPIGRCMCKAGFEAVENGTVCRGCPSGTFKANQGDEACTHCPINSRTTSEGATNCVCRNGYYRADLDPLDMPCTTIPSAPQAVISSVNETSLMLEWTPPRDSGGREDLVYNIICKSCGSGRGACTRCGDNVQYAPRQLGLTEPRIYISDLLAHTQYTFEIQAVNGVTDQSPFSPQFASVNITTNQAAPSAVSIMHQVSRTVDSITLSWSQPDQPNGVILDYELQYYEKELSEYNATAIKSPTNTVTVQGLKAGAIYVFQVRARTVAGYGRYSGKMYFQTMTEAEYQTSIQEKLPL

In assay [4] the target is T4, recombinant EphA10 receptor (commercially available) (UniProt Q5JZY3 34-565, limits assumed).
T4 sequence (looked up): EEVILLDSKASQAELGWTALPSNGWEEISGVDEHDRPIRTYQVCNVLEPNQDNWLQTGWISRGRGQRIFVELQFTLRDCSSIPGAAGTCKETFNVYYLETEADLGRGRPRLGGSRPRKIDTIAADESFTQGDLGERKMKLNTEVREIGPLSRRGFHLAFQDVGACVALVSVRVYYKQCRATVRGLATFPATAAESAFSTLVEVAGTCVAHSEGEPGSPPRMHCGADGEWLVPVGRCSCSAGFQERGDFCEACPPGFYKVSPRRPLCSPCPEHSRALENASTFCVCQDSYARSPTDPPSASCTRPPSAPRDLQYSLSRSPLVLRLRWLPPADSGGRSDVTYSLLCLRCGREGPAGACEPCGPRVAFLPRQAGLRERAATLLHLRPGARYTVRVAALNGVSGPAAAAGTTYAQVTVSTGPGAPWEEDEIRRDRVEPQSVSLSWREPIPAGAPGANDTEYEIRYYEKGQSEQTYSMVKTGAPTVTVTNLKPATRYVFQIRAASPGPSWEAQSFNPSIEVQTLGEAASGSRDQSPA

The target in assay [5] is recombinant EphA4 receptor (commercially available) (UniProt P54764 20-547, limits assumed).
In assay [6] the target is recombinant EphA2 receptor (commercially available) (UniProt P29317 25-534, limits assumed).
Assay [7] has as its target T5, recombinant EphA6 receptor (commercially available) (UniProt Q9UF33 23-550, limits assumed).
T5 sequence (looked up): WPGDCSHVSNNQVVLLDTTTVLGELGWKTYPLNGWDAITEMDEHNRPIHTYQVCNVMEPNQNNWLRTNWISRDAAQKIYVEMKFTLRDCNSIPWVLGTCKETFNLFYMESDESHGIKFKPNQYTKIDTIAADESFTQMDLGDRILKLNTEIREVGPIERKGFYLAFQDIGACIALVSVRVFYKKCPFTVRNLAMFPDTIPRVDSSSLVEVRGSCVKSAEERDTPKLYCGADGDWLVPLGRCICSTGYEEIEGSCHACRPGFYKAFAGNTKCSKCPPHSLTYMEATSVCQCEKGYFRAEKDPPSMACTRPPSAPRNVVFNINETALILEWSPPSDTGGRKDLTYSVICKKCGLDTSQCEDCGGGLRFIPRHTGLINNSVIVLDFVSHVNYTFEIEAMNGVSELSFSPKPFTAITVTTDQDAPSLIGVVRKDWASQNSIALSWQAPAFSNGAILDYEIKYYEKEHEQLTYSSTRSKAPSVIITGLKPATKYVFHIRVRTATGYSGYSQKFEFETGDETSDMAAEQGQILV

Chain of recombinant EphA2 receptor (commercially available) (P29317 25-534 limits assumed): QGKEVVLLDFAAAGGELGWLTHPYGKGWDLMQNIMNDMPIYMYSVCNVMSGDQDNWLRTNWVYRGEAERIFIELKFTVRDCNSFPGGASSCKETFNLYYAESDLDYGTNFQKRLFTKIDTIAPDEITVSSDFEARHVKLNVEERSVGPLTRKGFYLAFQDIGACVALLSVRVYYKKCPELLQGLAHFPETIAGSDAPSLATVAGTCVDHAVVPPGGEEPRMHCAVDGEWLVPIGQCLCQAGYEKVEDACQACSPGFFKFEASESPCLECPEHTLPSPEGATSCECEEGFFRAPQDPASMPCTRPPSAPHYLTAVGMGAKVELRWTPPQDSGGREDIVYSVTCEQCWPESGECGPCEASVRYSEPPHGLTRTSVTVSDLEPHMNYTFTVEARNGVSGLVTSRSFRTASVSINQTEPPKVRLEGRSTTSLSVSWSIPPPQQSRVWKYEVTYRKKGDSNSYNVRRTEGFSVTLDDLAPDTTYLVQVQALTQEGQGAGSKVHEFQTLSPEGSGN
Chain of recombinant EphA4 receptor (commercially available) (P54764 20-547 limits assumed): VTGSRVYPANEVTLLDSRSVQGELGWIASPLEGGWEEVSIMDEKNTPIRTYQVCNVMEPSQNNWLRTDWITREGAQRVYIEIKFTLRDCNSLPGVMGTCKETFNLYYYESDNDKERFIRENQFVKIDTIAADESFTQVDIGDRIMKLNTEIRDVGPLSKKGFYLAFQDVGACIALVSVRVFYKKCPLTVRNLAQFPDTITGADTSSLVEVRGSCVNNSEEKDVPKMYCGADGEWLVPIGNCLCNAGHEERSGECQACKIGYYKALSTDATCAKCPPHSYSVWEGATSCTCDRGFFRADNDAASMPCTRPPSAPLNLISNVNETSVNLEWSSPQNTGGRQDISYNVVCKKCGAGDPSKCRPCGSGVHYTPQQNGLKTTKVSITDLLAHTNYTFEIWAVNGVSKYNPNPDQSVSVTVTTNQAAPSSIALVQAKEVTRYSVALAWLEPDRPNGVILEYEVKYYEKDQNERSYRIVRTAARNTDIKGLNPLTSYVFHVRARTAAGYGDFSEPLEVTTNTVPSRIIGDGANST

B1: monomeric human Ephrin-A4 (ligand)
chain: LRHVVYWNSSNPRLLRGDAVVELGLNDYLDIVCPHYEGPGPPEGPETFALYMVDWPGYESCQAEGPRAYKRWVCSLPFGHVQFSEKIQRFTPFSLGFEFLPGETYYYISVPTPESSGQCLRLQVSVCCKERKSESAHPVGSPGES
B1: the equilibrium dissociation constant (Kd) in assay [1] stood at 77 nM; in assay [2], 86 nM; in assay [3] it was 135 nM; in assay [4], 431 nM; in assay [5], 122 nM; in assay [6], 31 nM. Moreover, the Kd in assay [7] was found to be 82 nM.

(Values after US20180296691A1 (Pfizer, published 2018).)
